# Substitutions are numbered along the chain they refer to.
# T1: soluble rat FcRn (rat, UniProt P13599 23-298; P07151 21-119)
# T1 construct: Soluble protein; whole entries named; also called sol rat FcRn
# T1 sequence: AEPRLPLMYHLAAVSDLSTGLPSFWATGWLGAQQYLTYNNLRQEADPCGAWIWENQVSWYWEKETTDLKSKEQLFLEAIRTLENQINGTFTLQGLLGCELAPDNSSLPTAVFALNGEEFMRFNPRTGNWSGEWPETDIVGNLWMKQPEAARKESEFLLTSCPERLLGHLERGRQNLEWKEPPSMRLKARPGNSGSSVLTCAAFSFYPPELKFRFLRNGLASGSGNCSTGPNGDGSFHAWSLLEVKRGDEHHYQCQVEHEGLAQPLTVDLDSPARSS
# T1 sequence (b2m): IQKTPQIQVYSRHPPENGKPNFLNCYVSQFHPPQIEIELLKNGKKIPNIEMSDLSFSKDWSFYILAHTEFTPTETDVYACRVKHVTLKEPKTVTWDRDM
# T2: rat FcRn / rat β2M expressed on cells (rat, UniProt P13599 23-366; P07151 21-119)
# T2 construct: also called rat FcRn (cells); rat fibroblasts expressing rat FcRn
# T2 sequence: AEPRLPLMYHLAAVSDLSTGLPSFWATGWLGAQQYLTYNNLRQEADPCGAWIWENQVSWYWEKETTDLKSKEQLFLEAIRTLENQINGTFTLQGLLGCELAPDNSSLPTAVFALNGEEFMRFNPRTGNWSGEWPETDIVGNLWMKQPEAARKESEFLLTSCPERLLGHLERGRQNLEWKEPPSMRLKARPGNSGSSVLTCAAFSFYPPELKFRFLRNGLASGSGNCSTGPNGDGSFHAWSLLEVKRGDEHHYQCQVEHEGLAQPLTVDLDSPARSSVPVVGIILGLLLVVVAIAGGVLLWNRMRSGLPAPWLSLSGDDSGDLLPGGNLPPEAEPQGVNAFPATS
# T2 sequence (b2m): T1 sequence (b2m)
# T3: murine FcRn / murine β2M expressed on 3T3 cells (mouse, UniProt Q61559 22-365; P01887 21-119)
# T3 construct: whole, on cells; also called mouse FcRn; 3T3 FcRn cells
# T3 sequence (looked up): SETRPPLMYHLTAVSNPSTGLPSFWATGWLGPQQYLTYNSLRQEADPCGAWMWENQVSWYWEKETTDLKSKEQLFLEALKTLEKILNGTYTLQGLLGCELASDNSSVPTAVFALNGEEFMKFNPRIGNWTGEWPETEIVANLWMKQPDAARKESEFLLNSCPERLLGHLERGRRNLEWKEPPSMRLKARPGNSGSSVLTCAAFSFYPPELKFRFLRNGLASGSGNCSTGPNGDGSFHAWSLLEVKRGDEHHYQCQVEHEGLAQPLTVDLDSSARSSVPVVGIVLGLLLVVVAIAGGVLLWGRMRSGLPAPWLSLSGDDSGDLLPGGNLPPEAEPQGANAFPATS
# T3 sequence (b2m, looked up): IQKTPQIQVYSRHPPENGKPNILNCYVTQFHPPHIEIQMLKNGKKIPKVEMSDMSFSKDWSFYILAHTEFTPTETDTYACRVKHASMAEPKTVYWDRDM
# B1: 532A-M0090-F11 soluble Fab (Fab)
# VH: EVQLLESGGGLVQPGGSLRLSCAASGFTFSEYAMGWVRQAPGKGLEWVSSIGSSGGQTKYADSVKGRFTISRDNSKNTLYLQMNSLRAEDTAVYYCARLSTGELYWGQGTLVTVSS
# light: QSVLTQPASVSGSPGQSITISCTGTGSDVGSYNLVSWYQKYPGKAPKLIIYGDSQRPSGLSSRFSGSKSGNSASLTISGLQAEDEADYYCCSYAGSGIYVFGSGTKVTVLSQPKANPTVTLFPPSSEELQANKATLVCLISDFYPGAVTVAWKADGSPVKAGVETTKPSKQSNNKYAASSYLSLTPEQWKSHRSYSCQVTHEGSTVEKTVAPAECS
# notes: sFab from phage display; CH1 not set out for the Fab; also called M90-F11 (Fab); M090-F11
# B2: 532A-M0090-F11 (germlined LC changes) IgG (antibody)
# heavy: EVQLLESGGGLVQPGGSLRLSCAASGFTFSEYAMGWVRQAPGKGLEWVSSIGSSGGQTKYADSVKGRFTISRDNSKNTLYLQMNSLRAEDTAVYYCARLSTGELYWGQGTLVTVSSASTKGPSVFPLAPSSKSTSGGTAALGCLVKDYFPEPVTVSWNSGALTSGVHTFPAVLQSSGLYSLSSVVTVPSSSLGTQTYICNVNHKPSNTKVDKKVEPKSCDKTHTCPPCAPELLGGPSVFLFPPKPKDTLMISRTPEVTCVVVDVSHEDPEVKFNWYVDGVEVHNAKTKPREEQYNSTYRVVSVLTVLHQDWLNGKEYKCKVSNKALPAPIEKTISKAKGQPREPQVYTLPPSPREPQVYTLPPSRDELTKNQVSLTCLVKGFYPSDIAVEWESNGQPENNYKTTPPVLDSDGSFFLYSKLTVDKSRWQQGNVFSCSVMHEALHNHYTQKSLSLSPGK
# light: B1 light with V3A, K40Q, Y41H, I49M, L60V, S62N, S72T, S103T, S111G, A213T
# notes: also called Germlined M90-F11 (GL)
# B3: DX-2500 (germlined LC & allotype HC changes) (antibody)
# heavy: B2 heavy with K213R, D366E, L368M
# light: B1 light with V3A, K40Q, Y41H, I49M, L60V, S62N, S72T, S103T, S111G, A213T
# notes: IgG, F allotype; 13 amino acid changes against parent M90-F11
# B4: 3B3.11 (antibody)
# heavy: VKLQESGPELVKPGASVKISCKASGYAFSRSWMNWVKQRPGQGLEWIGRIHPGDGDTNYNGKFKGKATLTVAKSSSTAYMQLSSLTSVDSAVYFCANEGSPYFDYWGQGTTLTVSSAKTTPPSVYPLAPGSAAQTNSMVTLGCLVKGYFPEPVTVTWNSGSLSSGVHTFPAVLQSDLYTLSSSVTVPSSTWPSETVTCNVAHPASSTKVDKKLE
# light: DIQLTQSPTTVAASPGEKITITCSASSSISSNYLHWYQQKPGFSPKLLIYRTSNLASGVPARFSGSGSGTSYSLTIGTMEAEDVATYYCQQGSNIPLTFGAGTKLELKRADAAPTVSIFPPSSEQLTSGGASVVCFLNNFYPKDINVKWKIDGSERQNGVLNSWTDQDSKDSTYSMSSTLTLTKDEYERHNSYTCEATHKTSTSPIVKSFNKNE
# notes: also called mAb 3B3.11
# How the values were obtained:
# [1] = target: T4, soluble human FcRn (extra-cellular domain of heavy chain and β2M) (human, UniProt P55899 24-297; P61769 21-119); assay: SPR 8500, hFcRn pH 6
# T4 construct: also called shFcRn; soluble hFcRn
# [2] = target: T4, soluble human FcRn (extra-cellular …); assay: SPR, sol Fab, pH 7.4
# soluble rat FcRn [3] = target: T1, soluble rat FcRn; assay: SPR 8500, rat FcRn pH 6
# [4] = target: T4, soluble human FcRn (extra-cellular …); assay: SPR 8500, hFcRn pH 7.4
# soluble rat FcRn [5] = target: T1, soluble rat FcRn; assay: SPR 8500, rat FcRn pH 7.4; rat FcRn pH 7.4
# soluble rat FcRn [6] = target: T1, soluble rat FcRn; assay: SPR 8500, rat FcRn pH 6; remark: listed apart in the source
# [7] = target: T2, rat FcRn / rat β2M expressed on cells; assay: FACS blocking of IgG-Fc, sol Fab, pH 6
# [8] = target: T5, human FcRn / human β2M expressed in 293 C11 cells (human, UniProt P55899 24-365; P61769 21-119); assay: FACS blocking of IgG-Fc, sol Fab, pH 6
# T5 construct: HEK 293 cells engineered to overexpress FcRn; also called hFcRn (cells); hFcRn in THP-1 and Caco-2 cells
# soluble rat FcRn [9] = target: T1, soluble rat FcRn; assay: SPR 8500, rat FcRn pH 7.4
# [10] = target: T4, soluble human FcRn (extra-cellular …); assay: SPR 8500, sol Fab, pH 6
# soluble rat FcRn [11] = target: T1, soluble rat FcRn; assay: SPR 8500, sol Fab, pH 6
# [12] = target: T4, soluble human FcRn (extra-cellular …); assay: SPR, sol Fab, pH 6.0
# [13] = target: T4, soluble human FcRn (extra-cellular …); assay: SPR 8500, hFcRn pH 7.4; remark: listed apart in the source
# [14] = target: T4, soluble human FcRn (extra-cellular …); assay: SPR 8500, sol Fab, pH 7.5
# soluble rat FcRn [15] = target: T1, soluble rat FcRn; assay: SPR 8500, sol Fab, pH 7.5
# [16] = target: T4, soluble human FcRn (extra-cellular …); assay: SPR 8500, hFcRn pH 6; remark: listed apart in the source
# [17] = target: T4, soluble human FcRn (extra-cellular …); assay: Biacore, IgG on chip, hFcRn flowed, pH 6
# [18] = target: T4, soluble human FcRn (extra-cellular …); assay: Biacore, hFcRn on chip, IgG flowed, pH 6
# [19] = target: T4, soluble human FcRn (extra-cellular …); assay: Biacore, IgG on chip, hFcRn flowed, pH 7.4
# [20] = target: T5, human FcRn / human β2M expressed in 293 …; assay: FACS blocking, hFcRn cells, pH 6
# [21] = target: T4, soluble human FcRn (extra-cellular …); assay: Biacore, hFcRn on chip, IgG flowed, pH 7.4
# [22] = target: T4, soluble human FcRn (extra-cellular …); assay: Biacore, IgG on chip, hFcRn flowed, pH 7.4; remark: listed apart in the source
# [23] = target: T4, soluble human FcRn (extra-cellular …); assay: Biacore, FcRn on chip, pH 6.0
# soluble monkey FcRn [24] = target: T6, soluble monkey FcRn (monkey (cyno), UniProt Q8SPV9 24-297; Q8SPW0 21-119); assay: Biacore, FcRn on chip, pH 6.0
# T6 construct: also called cyno
# [25] = target: T4, soluble human FcRn (extra-cellular …); assay: Biacore, FcRn on chip, pH 7.4
# soluble monkey FcRn [26] = target: T6, soluble monkey FcRn; assay: Biacore, FcRn on chip, pH 7.4
# [27] = target: T4, soluble human FcRn (extra-cellular …); assay: Biacore, FcRn on chip, pH 7.4; pH 7.4; n = 2
# [28] = target: T2, rat FcRn / rat β2M expressed on cells; assay: FACS binding, Alexa488-mAb, pH 7.4
# [29] = target: T3, murine FcRn / murine β2M expressed on …; assay: FACS binding, Alexa488-mAb, pH 7.4
# T4 sequence (P55899 24-297 limits assumed, chain 1 of 2): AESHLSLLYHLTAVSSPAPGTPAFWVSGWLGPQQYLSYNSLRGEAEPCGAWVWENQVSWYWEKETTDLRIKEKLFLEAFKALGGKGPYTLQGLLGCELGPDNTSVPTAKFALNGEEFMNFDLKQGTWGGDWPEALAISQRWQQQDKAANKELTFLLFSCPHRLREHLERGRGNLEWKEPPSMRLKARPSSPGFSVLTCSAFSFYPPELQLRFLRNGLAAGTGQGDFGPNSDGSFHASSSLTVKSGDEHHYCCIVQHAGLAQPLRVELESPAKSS
# T4 sequence (P61769 21-119 limits assumed, chain 2 of 2): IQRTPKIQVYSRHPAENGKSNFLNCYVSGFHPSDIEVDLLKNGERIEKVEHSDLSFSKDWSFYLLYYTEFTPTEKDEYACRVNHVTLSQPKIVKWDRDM
# T6 sequence (Q8SPV9 24-297, chain 1 of 2): as the sequence (P55899 24-297 limits assumed, chain 1 of 2) above, with N39D, E44Q, G99S, S189G, S190N, L217M, S269T counted along it
# T6 sequence (Q8SPW0 21-119, chain 2 of 2): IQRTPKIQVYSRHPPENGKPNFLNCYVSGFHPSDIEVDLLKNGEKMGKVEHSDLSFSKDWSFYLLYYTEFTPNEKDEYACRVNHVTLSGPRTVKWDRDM
# T5 sequence (P55899 24-365 limits assumed, chain 1 of 2): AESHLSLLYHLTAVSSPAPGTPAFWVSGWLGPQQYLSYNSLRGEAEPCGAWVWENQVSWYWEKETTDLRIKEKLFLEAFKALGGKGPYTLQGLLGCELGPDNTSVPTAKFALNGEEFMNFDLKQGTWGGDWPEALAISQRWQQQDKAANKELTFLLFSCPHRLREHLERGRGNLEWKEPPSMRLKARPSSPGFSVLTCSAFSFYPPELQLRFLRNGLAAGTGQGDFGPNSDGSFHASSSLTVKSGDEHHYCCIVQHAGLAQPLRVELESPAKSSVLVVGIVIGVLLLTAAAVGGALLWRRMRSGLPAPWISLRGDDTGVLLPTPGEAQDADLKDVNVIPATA
# T5 sequence (P61769 21-119 limits assumed, chain 2 of 2): as the sequence (P61769 21-119 limits assumed, chain 2 of 2) above
binder,measurement,setting,value
B1,Kd,[1],6.11 nM
same,Fold Kd Improvement Over Germlined M90-F11,[2],2.3 fold
same,Kd,[2],13 nM
same,Kd,soluble rat FcRn [3],20.3 nM
same,Kd,[4],7.08 nM
same,Kd,soluble rat FcRn [5],9.96 nM
same,Kd,soluble rat FcRn [6],31.2 nM
same,IC50,[7],6480 nM
same,IC50,[8],13 nM
same,Kd,soluble rat FcRn [9],3.29 nM
same,Kd,[10],9.2 nM
same,Kd,soluble rat FcRn [11],31.2 nM
same,Kd,[12],12 nM
same,Kd,[13],19.1 nM
same,Kd,[14],19.1 nM
same,Kd,soluble rat FcRn [15],9.9 nM
same,Kd,[16],9.2 nM
B2,Kd,[17],29.9 nM
same,koff,[17],0.0172 s⁻¹
same,kon,[17],574000 M⁻¹ s⁻¹
same,Kd,[18],0.172 nM
same,koff,[18],0.000764 s⁻¹
same,kon,[18],4.45e+06 M⁻¹ s⁻¹
same,Kd,[19],35.2 nM
same,koff,[19],0.0152 s⁻¹
same,kon,[19],433000 M⁻¹ s⁻¹
same,IC50,[20],0.38 nM
same,Kd,[21],0.779 nM
same,koff,[21],0.000776 s⁻¹
same,kon,[21],996000 M⁻¹ s⁻¹
B3,Kd,[17],27.6 nM
same,koff,[17],0.0177 s⁻¹
same,kon,[17],642000 M⁻¹ s⁻¹
same,K off Fold improvement over DX2500,[22],1 fold
same,K off Fold improvement over M90-F11,[22],0.15 fold
same,KD Fold improvement over DX2500,[22],1 fold
same,KD Fold improvement over M90-F11,[22],0.21 fold
same,Kd,[22],87.9 nM
same,koff,[22],0.0197 s⁻¹
same,kon,[22],224000 M⁻¹ s⁻¹
same,Kd,[18],0.16 nM
same,koff,[18],0.000336 s⁻¹
same,kon,[18],2.11e+06 M⁻¹ s⁻¹
same,IC50,[20],0.65 nM
same,Kd,[21],0.268 nM
same,koff,[21],0.000338 s⁻¹
same,kon,[21],1.26e+06 M⁻¹ s⁻¹
B4,Kd,[23],1.17 nM
same,koff,[23],0.000176 s⁻¹
same,Kd,soluble monkey FcRn [24],3.23 nM
same,koff,soluble monkey FcRn [24],0.000552 s⁻¹
same,Kd,[25],0.16 nM
same,Kd,soluble monkey FcRn [26],3.24 nM
same,koff,soluble monkey FcRn [26],0.000247 s⁻¹
same,koff,[27],1.45e-06 s⁻¹
same,binding result,[28],no binding
same,binding result,[29],binds
